Measured values reported in patent publication US20260049138A1 (Chugai, published 2026).

Molecular target: T1, CD3ε homodimer protein (human, UniProt P07766 23-126, limits assumed, sulfo-tag or biotin label in the ECL assays; amine-coupled to the chip in SPR)
T1 construct: also called human CD3ε homodimer protein; CD3 (CD3ε)
Assay: SPR Biacore T200; CD3ε homodimer on CM4 chip;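 further: Single-residue variant antibodies injected as analyte over CD3ε homodimer immobilized by amine coupling, run at 25 °C in HBS-EP+ buffer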
Procedure: An appropriate amount of CD3ε homodimer protein was immobilized onto Sensor chip CM4 (GE Healthcare Japan Corp.) by the amine coupling method. Then, the antibody having an appropriate concentration was injected thereto as an analyte and allowed to interact with the CD3ε homodimer protein on the sensor chip. Then, the sensor chip was regenerated by the injection of 10 mmol/L glycine-HCl (pH 1.5). The assay was conducted at 25° C., and HBS-EP+ (GE Healthcare Japan Corp.) was used as a running buffer. […] Each parameter was calculated using Biacore T200 Evaluation Software (GE Healthcare Japan Corp.).

T1 sequence (P07766 23-126 limits assumed): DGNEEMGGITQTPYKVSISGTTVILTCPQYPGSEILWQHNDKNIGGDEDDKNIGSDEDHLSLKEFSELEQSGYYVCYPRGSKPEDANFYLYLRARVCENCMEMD

Row | Binder | ratio of amounts bound Z=Y/X (altered form / CE115HA000)
1 | CE115HA000 K75R one-arm antibody (antibody, human IgG1, kappa, L234A L235A, N297A, name in Kabat numbering) heavy: QVQLVESGGGVVQPGRSLRLSCAASGFTFSNAWMHWVRQAPGKGLEWVAQIKAKSNNYATYYAESVKGRFTISRDDSRNSLYLQMNSLKTEDTAVYYCRYVHYGAYYGVDAWGQGTTVTVSSASTKGPSVFPLAPSSKSTSGGTAALGCLVKDYFPEPVTVSWNSGALTSGVHTFPAVLQSSGLYSLSSVVTVPSSSLGTQTYICNVNHKPSNTKVDKKVEPKSCDKTHTCPPCPAPEAAGGPSVFLFPPKPKDTLMISRTPEVTCVVVDVSHEDPEVKFNWYVDGVEVHNAKTKPREEQYASTYRVVSVLTVLHQDWLNGKEYKCKVSNKALPAPIEKTISKAKGQPREPQVYTLPPSRCELTKNQVSLSCAVKGFYPSDIAVEWESNGQPENNYKTTPPVLDSDGSFFLVSKLTVDKSRWQQGNVFSCSVMHEALHNHYTQKSLSLSPDYKDDDDK EPKSSDKTHTCPPCPAPELLGGPSVFLFPPKPKDTLMISRTPEVTCVVVDVSHEDPEVKFNWYVDGVEVHNAKTKPREEQYNSTYRVVSVLTVLHQDWLNGKEYKCKVSNKALPAPIEKTISKAKGQPREPQVCTLPPSRDELTKNQVSLWCLVKGFYPSDIAVEWESNGQPENNYKTTPPVLDSDGSFFLYSKLTVDKSRWQQGNVFSCSVMHEALHNRYTQKSLSLSP light: DIVMTQSPLSLPVTPGEPASISCRSSQSLVHSNRNTYLHWYQQKPGQAPRLLIYKVSNRFSGVPDRFSGSGSGTDFTLKISRVEAEDVGVYYCGQGTQVPYTFGQGTKLEIKRTVAAPSVFIFPPSDEQLKSGTASVVCLLNNFYPREAKVQWKVDNALQSGNSQESVTEQDSKDSTYSLSSTLTLSKADYEKHKVYACEVTHQGLSSPVTKSFNRGEC | 1.01
2 | CE115HA000 K75T one-arm antibody (antibody, human IgG1, kappa, L234A L235A, N297A, name in Kabat numbering) heavy: QVQLVESGGGVVQPGRSLRLSCAASGFTFSNAWMHWVRQAPGKGLEWVAQIKAKSNNYATYYAESVKGRFTISRDDSTNSLYLQMNSLKTEDTAVYYCRYVHYGAYYGVDAWGQGTTVTVSSASTKGPSVFPLAPSSKSTSGGTAALGCLVKDYFPEPVTVSWNSGALTSGVHTFPAVLQSSGLYSLSSVVTVPSSSLGTQTYICNVNHKPSNTKVDKKVEPKSCDKTHTCPPCPAPEAAGGPSVFLFPPKPKDTLMISRTPEVTCVVVDVSHEDPEVKFNWYVDGVEVHNAKTKPREEQYASTYRVVSVLTVLHQDWLNGKEYKCKVSNKALPAPIEKTISKAKGQPREPQVYTLPPSRCELTKNQVSLSCAVKGFYPSDIAVEWESNGQPENNYKTTPPVLDSDGSFFLVSKLTVDKSRWQQGNVFSCSVMHEALHNHYTQKSLSLSPDYKDDDDK EPKSSDKTHTCPPCPAPELLGGPSVFLFPPKPKDTLMISRTPEVTCVVVDVSHEDPEVKFNWYVDGVEVHNAKTKPREEQYNSTYRVVSVLTVLHQDWLNGKEYKCKVSNKALPAPIEKTISKAKGQPREPQVCTLPPSRDELTKNQVSLWCLVKGFYPSDIAVEWESNGQPENNYKTTPPVLDSDGSFFLYSKLTVDKSRWQQGNVFSCSVMHEALHNRYTQKSLSLSP light: DIVMTQSPLSLPVTPGEPASISCRSSQSLVHSNRNTYLHWYQQKPGQAPRLLIYKVSNRFSGVPDRFSGSGSGTDFTLKISRVEAEDVGVYYCGQGTQVPYTFGQGTKLEIKRTVAAPSVFIFPPSDEQLKSGTASVVCLLNNFYPREAKVQWKVDNALQSGNSQESVTEQDSKDSTYSLSSTLTLSKADYEKHKVYACEVTHQGLSSPVTKSFNRGEC | 0.84
3 | CE115HA000 N31A one-arm antibody (antibody, human IgG1, kappa, L234A L235A, N297A, name in Kabat numbering, One-arm antibody: altered VH-pE22Hh, Kn010G3, GLS3000-kappa; The same holds for m64 to m321) heavy: QVQLVESGGGVVQPGRSLRLSCAASGFTFSAAWMHWVRQAPGKGLEWVAQIKAKSNNYATYYAESVKGRFTISRDDSKNSLYLQMNSLKTEDTAVYYCRYVHYGAYYGVDAWGQGTTVTVSSASTKGPSVFPLAPSSKSTSGGTAALGCLVKDYFPEPVTVSWNSGALTSGVHTFPAVLQSSGLYSLSSVVTVPSSSLGTQTYICNVNHKPSNTKVDKKVEPKSCDKTHTCPPCPAPEAAGGPSVFLFPPKPKDTLMISRTPEVTCVVVDVSHEDPEVKFNWYVDGVEVHNAKTKPREEQYASTYRVVSVLTVLHQDWLNGKEYKCKVSNKALPAPIEKTISKAKGQPREPQVYTLPPSRCELTKNQVSLSCAVKGFYPSDIAVEWESNGQPENNYKTTPPVLDSDGSFFLVSKLTVDKSRWQQGNVFSCSVMHEALHNHYTQKSLSLSPDYKDDDDK EPKSSDKTHTCPPCPAPELLGGPSVFLFPPKPKDTLMISRTPEVTCVVVDVSHEDPEVKFNWYVDGVEVHNAKTKPREEQYNSTYRVVSVLTVLHQDWLNGKEYKCKVSNKALPAPIEKTISKAKGQPREPQVCTLPPSRDELTKNQVSLWCLVKGFYPSDIAVEWESNGQPENNYKTTPPVLDSDGSFFLYSKLTVDKSRWQQGNVFSCSVMHEALHNRYTQKSLSLSP light: DIVMTQSPLSLPVTPGEPASISCRSSQSLVHSNRNTYLHWYQQKPGQAPRLLIYKVSNRFSGVPDRFSGSGSGTDFTLKISRVEAEDVGVYYCGQGTQVPYTFGQGTKLEIKRTVAAPSVFIFPPSDEQLKSGTASVVCLLNNFYPREAKVQWKVDNALQSGNSQESVTEQDSKDSTYSLSSTLTLSKADYEKHKVYACEVTHQGLSSPVTKSFNRGEC | 0.5

Second part, the binder after the results:

Row | ratio of amounts bound Z=Y/X (altered form / CE115HA000) | Binder
4 | 0.84 | CE115HA000 K64S one-arm antibody (antibody, human IgG1, kappa, L234A L235A, N297A, name in Kabat numbering) heavy: QVQLVESGGGVVQPGRSLRLSCAASGFTFSNAWMHWVRQAPGKGLEWVAQIKAKSNNYATYYAESVSGRFTISRDDSKNSLYLQMNSLKTEDTAVYYCRYVHYGAYYGVDAWGQGTTVTVSSASTKGPSVFPLAPSSKSTSGGTAALGCLVKDYFPEPVTVSWNSGALTSGVHTFPAVLQSSGLYSLSSVVTVPSSSLGTQTYICNVNHKPSNTKVDKKVEPKSCDKTHTCPPCPAPEAAGGPSVFLFPPKPKDTLMISRTPEVTCVVVDVSHEDPEVKFNWYVDGVEVHNAKTKPREEQYASTYRVVSVLTVLHQDWLNGKEYKCKVSNKALPAPIEKTISKAKGQPREPQVYTLPPSRCELTKNQVSLSCAVKGFYPSDIAVEWESNGQPENNYKTTPPVLDSDGSFFLVSKLTVDKSRWQQGNVFSCSVMHEALHNHYTQKSLSLSPDYKDDDDK EPKSSDKTHTCPPCPAPELLGGPSVFLFPPKPKDTLMISRTPEVTCVVVDVSHEDPEVKFNWYVDGVEVHNAKTKPREEQYNSTYRVVSVLTVLHQDWLNGKEYKCKVSNKALPAPIEKTISKAKGQPREPQVCTLPPSRDELTKNQVSLWCLVKGFYPSDIAVEWESNGQPENNYKTTPPVLDSDGSFFLYSKLTVDKSRWQQGNVFSCSVMHEALHNRYTQKSLSLSP light: DIVMTQSPLSLPVTPGEPASISCRSSQSLVHSNRNTYLHWYQQKPGQAPRLLIYKVSNRFSGVPDRFSGSGSGTDFTLKISRVEAEDVGVYYCGQGTQVPYTFGQGTKLEIKRTVAAPSVFIFPPSDEQLKSGTASVVCLLNNFYPREAKVQWKVDNALQSGNSQESVTEQDSKDSTYSLSSTLTLSKADYEKHKVYACEVTHQGLSSPVTKSFNRGEC
5 | 1.34 | CE115HA000 L78I one-arm antibody (antibody, human IgG1, kappa, L234A L235A, N297A, name in Kabat numbering) heavy: QVQLVESGGGVVQPGRSLRLSCAASGFTFSNAWMHWVRQAPGKGLEWVAQIKAKSNNYATYYAESVKGRFTISRDDSKNSIYLQMNSLKTEDTAVYYCRYVHYGAYYGVDAWGQGTTVTVSSASTKGPSVFPLAPSSKSTSGGTAALGCLVKDYFPEPVTVSWNSGALTSGVHTFPAVLQSSGLYSLSSVVTVPSSSLGTQTYICNVNHKPSNTKVDKKVEPKSCDKTHTCPPCPAPEAAGGPSVFLFPPKPKDTLMISRTPEVTCVVVDVSHEDPEVKFNWYVDGVEVHNAKTKPREEQYASTYRVVSVLTVLHQDWLNGKEYKCKVSNKALPAPIEKTISKAKGQPREPQVYTLPPSRCELTKNQVSLSCAVKGFYPSDIAVEWESNGQPENNYKTTPPVLDSDGSFFLVSKLTVDKSRWQQGNVFSCSVMHEALHNHYTQKSLSLSPDYKDDDDK EPKSSDKTHTCPPCPAPELLGGPSVFLFPPKPKDTLMISRTPEVTCVVVDVSHEDPEVKFNWYVDGVEVHNAKTKPREEQYNSTYRVVSVLTVLHQDWLNGKEYKCKVSNKALPAPIEKTISKAKGQPREPQVCTLPPSRDELTKNQVSLWCLVKGFYPSDIAVEWESNGQPENNYKTTPPVLDSDGSFFLYSKLTVDKSRWQQGNVFSCSVMHEALHNRYTQKSLSLSP light: DIVMTQSPLSLPVTPGEPASISCRSSQSLVHSNRNTYLHWYQQKPGQAPRLLIYKVSNRFSGVPDRFSGSGSGTDFTLKISRVEAEDVGVYYCGQGTQVPYTFGQGTKLEIKRTVAAPSVFIFPPSDEQLKSGTASVVCLLNNFYPREAKVQWKVDNALQSGNSQESVTEQDSKDSTYSLSSTLTLSKADYEKHKVYACEVTHQGLSSPVTKSFNRGEC
6 | 0.37 | CE115HA000 N31D one-arm antibody (antibody, human IgG1, kappa, L234A L235A, N297A, name in Kabat numbering) heavy: QVQLVESGGGVVQPGRSLRLSCAASGFTFSDAWMHWVRQAPGKGLEWVAQIKAKSNNYATYYAESVKGRFTISRDDSKNSLYLQMNSLKTEDTAVYYCRYVHYGAYYGVDAWGQGTTVTVSSASTKGPSVFPLAPSSKSTSGGTAALGCLVKDYFPEPVTVSWNSGALTSGVHTFPAVLQSSGLYSLSSVVTVPSSSLGTQTYICNVNHKPSNTKVDKKVEPKSCDKTHTCPPCPAPEAAGGPSVFLFPPKPKDTLMISRTPEVTCVVVDVSHEDPEVKFNWYVDGVEVHNAKTKPREEQYASTYRVVSVLTVLHQDWLNGKEYKCKVSNKALPAPIEKTISKAKGQPREPQVYTLPPSRCELTKNQVSLSCAVKGFYPSDIAVEWESNGQPENNYKTTPPVLDSDGSFFLVSKLTVDKSRWQQGNVFSCSVMHEALHNHYTQKSLSLSPDYKDDDDK EPKSSDKTHTCPPCPAPELLGGPSVFLFPPKPKDTLMISRTPEVTCVVVDVSHEDPEVKFNWYVDGVEVHNAKTKPREEQYNSTYRVVSVLTVLHQDWLNGKEYKCKVSNKALPAPIEKTISKAKGQPREPQVCTLPPSRDELTKNQVSLWCLVKGFYPSDIAVEWESNGQPENNYKTTPPVLDSDGSFFLYSKLTVDKSRWQQGNVFSCSVMHEALHNRYTQKSLSLSP light: DIVMTQSPLSLPVTPGEPASISCRSSQSLVHSNRNTYLHWYQQKPGQAPRLLIYKVSNRFSGVPDRFSGSGSGTDFTLKISRVEAEDVGVYYCGQGTQVPYTFGQGTKLEIKRTVAAPSVFIFPPSDEQLKSGTASVVCLLNNFYPREAKVQWKVDNALQSGNSQESVTEQDSKDSTYSLSSTLTLSKADYEKHKVYACEVTHQGLSSPVTKSFNRGEC
